This is an account of results in PMC9772228, “Structure of a RecT/Redβ family recombinase in complex with a duplex intermediate of DNA annealing”.

Data set [1] addresses LiRecT (RecT/Redβ family recombinase from the A118 prophage of Listeria innocua) (Listeria innocua). Description: native MS; free LiRecT without DNA at 30 µM, 100 mM ammonium acetate pH 7.
Data set [2] addresses T1, LiRecT WT (Listeria innocua CLIP 11262, UniProt Q92FL9 1-271).
T1 sequence: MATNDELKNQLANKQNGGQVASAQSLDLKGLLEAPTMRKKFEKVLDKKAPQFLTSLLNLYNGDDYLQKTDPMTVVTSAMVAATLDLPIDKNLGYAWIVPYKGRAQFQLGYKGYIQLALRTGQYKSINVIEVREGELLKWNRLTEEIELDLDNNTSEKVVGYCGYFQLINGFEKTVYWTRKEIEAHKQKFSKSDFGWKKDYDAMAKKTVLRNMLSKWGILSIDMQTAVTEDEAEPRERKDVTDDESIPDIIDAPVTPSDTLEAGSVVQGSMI
Kind of data set: EMSA; EMSA: PBS pH 7.4 (or KH2PO4/10 mM MgCl2 pH 6.0), 3.6 or 5 uM protein, 25 uM nt DNA, 37 C 15 min per strand, 0.8% agarose 1x TBE; cryo-EM: 20 mM KH2PO4 (Results: 10 mM), 10 mM MgCl2 pH 6.0, 37 C; native MS: 100 mM ammonium acetate pH 7, 37 C. Conditions: protein: recombinant, tags: N-terminal 6His, thrombin-cleaved in main prep, chain copies: 10, single strand. On the technique in general: In EMSA bound probe runs differently from free probe, usually more slowly.

The target in the next data set is T2, λ-Redβ (bacteriophage lambda, UniProt P03698 1-261).
T2 sequence: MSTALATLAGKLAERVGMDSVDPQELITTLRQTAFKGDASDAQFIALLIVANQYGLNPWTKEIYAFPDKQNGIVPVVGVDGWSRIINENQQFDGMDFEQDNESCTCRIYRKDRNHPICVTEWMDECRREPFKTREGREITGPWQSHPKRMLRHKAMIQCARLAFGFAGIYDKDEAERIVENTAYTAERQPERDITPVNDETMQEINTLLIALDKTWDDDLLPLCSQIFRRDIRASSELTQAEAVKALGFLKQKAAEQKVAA
Kind of data set: EMSA; sequential addition; EMSA: PBS pH 7.4 (or KH2PO4/10 mM MgCl2 pH 6.0), 3.6 or 5 uM protein, 25 uM nt DNA, 37 C 15 min per strand, 0.8% agarose 1x TBE; cryo-EM: 20 mM KH2PO4 (Results: 10 mM), 10 mM MgCl2 pH 6.0, 37 C; native MS: 100 mM ammonium acetate pH 7, 37 C. The following applies: protein: recombinant; label: 5'-Cy3;5'-Cy5; 49 bp, 1 nt 5' overhang at each end.

Data set [3] has as its target T1, LiRecT WT. The description is as above. Conditions: protein: recombinant; tags: N-terminal 6His, thrombin-cleaved in main prep; chain copies: 10; label: 5'-Cy3;5'-Cy5; 49 bp, 1 nt 5' overhang at each end.
The target of data set [4] is T1, LiRecT WT. Description: native MS; 15 LiRecT:2 DNA among species; EMSA: PBS pH 7.4 (or KH2PO4/10 mM MgCl2 pH 6.0), 3.6 or 5 uM protein, 25 uM nt DNA, 37 C 15 min per strand, 0.8% agarose 1x TBE; cryo-EM: 20 mM KH2PO4 (Results: 10 mM), 10 mM MgCl2 pH 6.0, 37 C; native MS: 100 mM ammonium acetate pH 7, 37 C. Conditions: protein: recombinant; tags: N-terminal 6His, thrombin-cleaved in main prep; chain copies: 10; single strand.

Data set [5] deals with T1, LiRecT WT. Description: native MS; 17 LiRecT:1:1; EMSA: PBS pH 7.4 (or KH2PO4/10 mM MgCl2 pH 6.0), 3.6 or 5 uM protein, 25 uM nt DNA, 37 C 15 min per strand, 0.8% agarose 1x TBE; cryo-EM: 20 mM KH2PO4 (Results: 10 mM), 10 mM MgCl2 pH 6.0, 37 C; native MS: 100 mM ammonium acetate pH 7, 37 C. The following applies: protein: recombinant; tags: N-terminal 6His, thrombin-cleaved in main prep; chain copies: 10; blunt.

Data set [6] has as its target T1, LiRecT WT. Kind of data set: native MS; 17 LiRecT:2 DNA among species; EMSA: PBS pH 7.4 (or KH2PO4/10 mM MgCl2 pH 6.0), 3.6 or 5 uM protein, 25 uM nt DNA, 37 C 15 min per strand, 0.8% agarose 1x TBE; cryo-EM: 20 mM KH2PO4 (Results: 10 mM), 10 mM MgCl2 pH 6.0, 37 C; native MS: 100 mM ammonium acetate pH 7, 37 C. Conditions: protein: recombinant; tags: N-terminal 6His, thrombin-cleaved in main prep; chain copies: 10; single strand.

The target of data set [7] is T1, LiRecT WT. Description: native MS; 16 LiRecT:1 DNA among species; EMSA: PBS pH 7.4 (or KH2PO4/10 mM MgCl2 pH 6.0), 3.6 or 5 uM protein, 25 uM nt DNA, 37 C 15 min per strand, 0.8% agarose 1x TBE; cryo-EM: 20 mM KH2PO4 (Results: 10 mM), 10 mM MgCl2 pH 6.0, 37 C; native MS: 100 mM ammonium acetate pH 7, 37 C. Conditions: protein: recombinant; tags: N-terminal 6His, thrombin-cleaved in main prep; chain copies: 10; single strand.

In data set [8] the target is T1, LiRecT WT. Kind of data set: native MS; 1-2 fewer subunits than 83-mer complex; EMSA: PBS pH 7.4 (or KH2PO4/10 mM MgCl2 pH 6.0), 3.6 or 5 uM protein, 25 uM nt DNA, 37 C 15 min per strand, 0.8% agarose 1x TBE; cryo-EM: 20 mM KH2PO4 (Results: 10 mM), 10 mM MgCl2 pH 6.0, 37 C; native MS: 100 mM ammonium acetate pH 7, 37 C. The following applies: protein: recombinant; tags: N-terminal 6His, thrombin-cleaved in main prep; chain copies: 10; blunt.

Data set [9] has as its target T1, LiRecT WT. Description: native MS; 17-18 LiRecT:1:1; EMSA: PBS pH 7.4 (or KH2PO4/10 mM MgCl2 pH 6.0), 3.6 or 5 uM protein, 25 uM nt DNA, 37 C 15 min per strand, 0.8% agarose 1x TBE; cryo-EM: 20 mM KH2PO4 (Results: 10 mM), 10 mM MgCl2 pH 6.0, 37 C; native MS: 100 mM ammonium acetate pH 7, 37 C. The following applies: protein: recombinant; tags: N-terminal 6His, thrombin-cleaved in main prep; chain copies: 10; blunt.

Data set [10] concerns the target T1, LiRecT WT. Kind of data set: cryo-EM; 10 mM MgCl2, pH 6.0; EMSA: PBS pH 7.4 (or KH2PO4/10 mM MgCl2 pH 6.0), 3.6 or 5 uM protein, 25 uM nt DNA, 37 C 15 min per strand, 0.8% agarose 1x TBE; cryo-EM: 20 mM KH2PO4 (Results: 10 mM), 10 mM MgCl2 pH 6.0, 37 C; native MS: 100 mM ammonium acetate pH 7, 37 C. Conditions: protein: recombinant; tags: N-terminal 6His, thrombin-cleaved in main prep; chain copies: 10; single strand.

Take “LiRecT (RecT/Redβ family recombinase from the A118 prophage of Listeria innocua) (natural protein)”: the stoichiometry N in [1] was < 9.

B1: Cy5-50mer (ssDNA)
DNA: CCATCCGCAAAAATCGAGCTATGCAGGGCGATTCTGCTCTAAGCCATCCG
Turning to B1, in the data set with LiRecT WT [2] (label: 5'-Cy5), the binding result is recorded as “binds”.

B2: 50-mer duplex intermediate (sequential addition) (dsDNA)
DNA 1: GCGGATGGCTTAGAGCAGAATCGCCCTGCATAGCTCGATTTTTGCGGATG
DNA 2: CCATCCGCAAAAATCGAGCTATGCAGGGCGATTCTGCTCTAAGCCATCCG
Take B2: the binding result in the data set with λ-Redβ and with LiRecT WT [3] was “binds” each time.

B3: 75+ (ssDNA)
DNA: TTGATAAGAGGTCATTTTTGCGGATGGCTTAGAGCTTAATTGCTGAATCTGGTGCTGTAGCTCAACATGTTTTAA
Turning to B3, the binding result in the data set with LiRecT WT [4] is on record as “binds”.

B4: 80-/80+ annealed duplex (sequential) (dsDNA)
DNA 1: CATATTTAAAACATGTTGAGCTACAGCACCAGATTCAGCAATTAAGCTCTAAGCCATCCGCAAAAATGACCTCTTATCAA
DNA 2: TTGATAAGAGGTCATTTTTGCGGATGGCTTAGAGCTTAATTGCTGAATCTGGTGCTGTAGCTCAACATGTTTTAAATATG
Consider B4, for which the binding result in the data set with LiRecT WT [5] is “binds”.

B5: 80- (ssDNA)
DNA: CATATTTAAAACATGTTGAGCTACAGCACCAGATTCAGCAATTAAGCTCTAAGCCATCCGCAAAAATGACCTCTTATCAA
Take B5: the binding result with LiRecT WT [6] is on record as “binds”.

B6: 80+ (ssDNA)
DNA: TTGATAAGAGGTCATTTTTGCGGATGGCTTAGAGCTTAATTGCTGAATCTGGTGCTGTAGCTCAACATGTTTTAAATATG
In the case of B6, the binding result with LiRecT WT [6] is “binds”.

B7: 75- (ssDNA)
DNA: TTAAAACATGTTGAGCTACAGCACCAGATTCAGCAATTAAGCTCTAAGCCATCCGCAAAAATGACCTCTTATCAA
With B7, in the data set with LiRecT WT [7], the binding result is recorded as “binds”.

B8: 75-/75+ annealed duplex (sequential) (dsDNA)
DNA 1: TTAAAACATGTTGAGCTACAGCACCAGATTCAGCAATTAAGCTCTAAGCCATCCGCAAAAATGACCTCTTATCAA
DNA 2: TTGATAAGAGGTCATTTTTGCGGATGGCTTAGAGCTTAATTGCTGAATCTGGTGCTGTAGCTCAACATGTTTTAA
For the molecule B8, the binding result with LiRecT WT [8] is given as “binds”.

B9: Cy3-50mer (ssDNA)
DNA: GCGGATGGCTTAGAGCAGAATCGCCCTGCATAGCTCGATTTTTGCGGATG
Turning to B9, the binding result with LiRecT WT [2] (label: 5'-Cy3) was “binds”.

B10: 83-/83+ annealed duplex (sequential) (dsDNA)
DNA 1: TTGCATATTTAAAACATGTTGAGCTACAGCACCAGATTCAGCAATTAAGCTCTAAGCCATCCGCAAAAATGACCTCTTATCAA
DNA 2: TTGATAAGAGGTCATTTTTGCGGATGGCTTAGAGCTTAATTGCTGAATCTGGTGCTGTAGCTCAACATGTTTTAAATATGCAA
In the case of B10, the binding result with LiRecT WT [9] was “binds”.

B11: 83- (ssDNA)
DNA: TTGCATATTTAAAACATGTTGAGCTACAGCACCAGATTCAGCAATTAAGCTCTAAGCCATCCGCAAAAATGACCTCTTATCAA
For the molecule B11, in the data set with LiRecT WT [10], the binding result was “binds”.

B12: 83+ (ssDNA)
DNA: TTGATAAGAGGTCATTTTTGCGGATGGCTTAGAGCTTAATTGCTGAATCTGGTGCTGTAGCTCAACATGTTTTAAATATGCAA
On to B12, for which the binding result with LiRecT WT [6] is “binds”.

What is called stoichiometry N is a count of units in the complex or per binding partner.
